{"source": "the supplement of paper PMC9170038", "test_system": "MS2 coat protein", "assay": "apparent KD of MS2 coat protein; designed switch direction (-1 OFF switch, 1 ON switch): 1; higher = weaker reporter binding", "summary_of_the_method": "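RNA switches sharing common flanks were transcribed by stalled E. coli RNA polymerase on Illumina chips. A doubling series of SNAP-549-labelled MS2 coat protein, from 0.7 or 1.5 nM to 3 µM, was applied in Tris-HCl pH 7.5 buffer with KCl, MgCl2, BSA, DTT, tRNA and Tween-20. Each step lasted 0.8–1.5 h at the bottom of the series and 10–20 min at the top. Normalised cluster fluorescence was curve-fitted, giving apparent KD as the per-design median over clusters.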", "key": {"[1]": {"conditions": "input ligand: microRNA oligo, concentration not stated"}, "[2]": {"conditions": "Eterna round: R95, input ligand: FMN 200 uM"}, "[3]": {"conditions": "Eterna round: R95, input ligand: microRNA oligo, concentration not stated"}, "[4]": {"conditions": "Eterna round: R95, input ligand: none"}}, "data": [{"sequence": "UUGAAGAAUUAAGGAUAUUGAUUACAUAUGUUUAACAUGAGGAUCACCCAUGUGGGUUGCGGUAUCGAGAAGGUAAAUUACUAG [JL SSNG2 1.47] (Eterna round: R96, puzzle: Same State NG 2)", "values": [{"measurement": "apparent KD of MS2 coat protein", "setting": "input ligand: FMN 200 uM", "result": 137, "unit": "nM"}, {"measurement": "apparent KD of MS2 coat protein", "setting": "[1]", "result": 122, "unit": "nM"}, {"measurement": "apparent KD of MS2 coat protein", "setting": "input ligand: none", "result": 162, "unit": "nM"}]}, {"sequence": "UUGAAUAAUUAAGGAUAUCGAGUCAAGAUGUUAAACAUGAGGAUCACCCAUGUGGGUUGCGGUAUCGAGAAGGUAAAUAAUAAG [Mat - Same State NG 2 - JL mod - D56] (Eterna round: R96, puzzle: Same State NG 2)", "values": [{"measurement": "apparent KD of MS2 coat protein", "setting": "input ligand: FMN 200 uM", "result": 38.6, "unit": "nM"}, {"measurement": "apparent KD of MS2 coat protein", "setting": "[1]", "result": 28.8, "unit": "nM"}, {"measurement": "apparent KD of MS2 coat protein", "setting": "input ligand: none", "result": 36.5, "unit": "nM"}]}, {"sequence": "UUGAUUAGAAAUUAACAUGAGGAUCACCCAUGUAUUGGAUCAGAGGAUAUGCAUGUUUGAUAGUAGCAGAAGGCUGAUGGUGGA [JR_SSNG3_Sub027] (Eterna round: R96, puzzle: Same State NG 3)", "values": [{"measurement": "apparent KD of MS2 coat protein", "setting": "input ligand: FMN 200 uM", "result": 68.3, "unit": "nM"}, {"measurement": "apparent KD of MS2 coat protein", "setting": "[1]", "result": 44.2, "unit": "nM"}, {"measurement": "apparent KD of MS2 coat protein", "setting": "input ligand: none", "result": 45.8, "unit": "nM"}]}, {"sequence": "UUGCAGUCAGGUGAGGAUAUCAUGAGUUUAACAUGAGGAUCACCCAUGUGCUGCCUUGCAGCAUAUGAGAAGGCACCUGGCUGCU [JL-ss2-3.03 Brourd Mod] (puzzle: Same State 2)", "values": [{"measurement": "apparent KD of MS2 coat protein", "setting": "[2]", "result": 132, "unit": "nM"}, {"measurement": "apparent KD of MS2 coat protein", "setting": "[3]", "result": 295, "unit": "nM"}, {"measurement": "apparent KD of MS2 coat protein", "setting": "[4]", "result": 535, "unit": "nM"}]}, {"sequence": "UUGCGCUGUCGAGAGGAUAUGCGGUGUUGGACAUGAGGAUCACCCAUGUUAGCGAUAGCAUUACGGUAGAAGGCUCUUCAGCUGC [salish99_ss2_r3_096] (puzzle: Same State 2)", "values": [{"measurement": "apparent KD of MS2 coat protein", "setting": "[2]", "result": 23.4, "unit": "nM"}, {"measurement": "apparent KD of MS2 coat protein", "setting": "[3]", "result": 17, "unit": "nM"}, {"measurement": "apparent KD of MS2 coat protein", "setting": "[4]", "result": 21.9, "unit": "nM"}]}, {"sequence": "UUGCGGAAUUAAGGAUAUUGAGUACAUAUGUUUAACAUGAGGAUCACCCAUGUGGGUUGCGGUAUCGAGAAGGUAAAUUACUAC [salish99_SSNG2_r04_802] (Eterna round: R96, puzzle: Same State NG 2)", "values": [{"measurement": "apparent KD of MS2 coat protein", "setting": "input ligand: FMN 200 uM", "result": 130, "unit": "nM"}, {"measurement": "apparent KD of MS2 coat protein", "setting": "[1]", "result": 88.8, "unit": "nM"}, {"measurement": "apparent KD of MS2 coat protein", "setting": "input ligand: none", "result": 105, "unit": "nM"}]}, {"sequence": "UUGCUUCUCGUAGGAUAUGUAGGAUAUUCCUACAUGAGGAUCACCCAUGUUCGCAUGGAAGAAGGACAGAAGGACGAUCACCCU [pwkr ssNG2 2FMN + 1F5.10] (Eterna round: R96, puzzle: Same State NG 2)", "values": [{"measurement": "apparent KD of MS2 coat protein", "setting": "input ligand: FMN 200 uM", "result": 330, "unit": "nM"}, {"measurement": "apparent KD of MS2 coat protein", "setting": "[1]", "result": 234, "unit": "nM"}, {"measurement": "apparent KD of MS2 coat protein", "setting": "input ligand: none", "result": 271, "unit": "nM"}]}, {"sequence": "UUGGUGUAGAUACAGGAUAUGUUGCUCGUAACAUGAGGAUCACCCAUGUAUCUAUGAGAUUAAAUGCAGAAGGGUGCACACCACU [salish99_ss2_r3_087] (puzzle: Same State 2)", "values": [{"measurement": "apparent KD of MS2 coat protein", "setting": "[2]", "result": 39.6, "unit": "nM"}, {"measurement": "apparent KD of MS2 coat protein", "setting": "[3]", "result": 341, "unit": "nM"}, {"measurement": "apparent KD of MS2 coat protein", "setting": "[4]", "result": 541, "unit": "nM"}]}, {"sequence": "UUGUUUAACGUAGGAUAUCGACCUACAUGAGGAUCACCCAUGUCUUUGUAUAGUUUUUUUUGUUACGAGAAGGACGUUUUGUAU [JR_SSNG2_Sub068] (Eterna round: R96, puzzle: Same State NG 2)", "values": [{"measurement": "apparent KD of MS2 coat protein", "setting": "input ligand: FMN 200 uM", "result": 68.6, "unit": "nM"}, {"measurement": "apparent KD of MS2 coat protein", "setting": "[1]", "result": 140, "unit": "nM"}, {"measurement": "apparent KD of MS2 coat protein", "setting": "input ligand: none", "result": 170, "unit": "nM"}]}, {"sequence": "UUGUUUCGUCAUUAACAUGAGGAUCACCCAUGUAAAGAACCAGAGGAUAUGCAUGUUUGAUUGUAGCAGAAGGCUGAUUGUUGU [JR_SSNG3_Sub033] (Eterna round: R96, puzzle: Same State NG 3)", "values": [{"measurement": "apparent KD of MS2 coat protein", "setting": "[1]", "result": 42.7, "unit": "nM"}]}, {"sequence": "UUGUUUCGUCAUUAACAUGAGGAUCACCCAUGUAUCGUCUCAAAGGAUAUAUAUGCUUGUUUGCUAUAGAAGGUUGAUUGUUGU [JR_SSNG3_Sub093] (Eterna round: R96, puzzle: Same State NG 3)", "values": [{"measurement": "apparent KD of MS2 coat protein", "setting": "[1]", "result": 91.6, "unit": "nM"}]}, {"sequence": "UUGUUUUGAAAUUAACAUGAGGAUCACCCAUGUCGUGAGACAGAGGAUAUACAGGAAUGUAGGUAGUAGAAGGCUGUUUAGUGU [JR_SSNG3_Sub099] (Eterna round: R96, puzzle: Same State NG 3)", "values": [{"measurement": "apparent KD of MS2 coat protein", "setting": "input ligand: FMN 200 uM", "result": 99.4, "unit": "nM"}, {"measurement": "apparent KD of MS2 coat protein", "setting": "[1]", "result": 95.6, "unit": "nM"}, {"measurement": "apparent KD of MS2 coat protein", "setting": "input ligand: none", "result": 142, "unit": "nM"}]}, {"sequence": "UUGUUUUGUAAUUAACAUGAGGAUCACCCAUGUCUUGGCACAGAGGAUAUACAUGUUUGUUUGUAGUAGAAGGCUGUUUAUUGU [JR_SSNG3_Sub096] (Eterna round: R96, puzzle: Same State NG 3)", "values": [{"measurement": "apparent KD of MS2 coat protein", "setting": "input ligand: FMN 200 uM", "result": 128, "unit": "nM"}, {"measurement": "apparent KD of MS2 coat protein", "setting": "[1]", "result": 116, "unit": "nM"}, {"measurement": "apparent KD of MS2 coat protein", "setting": "input ligand: none", "result": 198, "unit": "nM"}]}, {"sequence": "UUUACUUUCAUAGGAUAUCAUGCGAAAAUUGCGUGAGAAGGGUGAACACUGUCUUUCUAAGAGUACAUGAGGAUCACCCAUGUA [SameState NG1 #65] (Eterna round: R96, puzzle: Same State NG 1)", "values": [{"measurement": "apparent KD of MS2 coat protein", "setting": "input ligand: FMN 200 uM", "result": 113, "unit": "nM"}, {"measurement": "apparent KD of MS2 coat protein", "setting": "[1]", "result": 102, "unit": "nM"}, {"measurement": "apparent KD of MS2 coat protein", "setting": "input ligand: none", "result": 131, "unit": "nM"}]}, {"sequence": "UUUACUUUCAUAGGAUAUCAUGCGAAAAUUGCGUGAGAAGGGUGAAUACUGUCUUUCUAAGAGUACAUGAGGAUCACCCAUGUA [SameState NG1 #64] (Eterna round: R96, puzzle: Same State NG 1)", "values": [{"measurement": "apparent KD of MS2 coat protein", "setting": "input ligand: FMN 200 uM", "result": 56.9, "unit": "nM"}, {"measurement": "apparent KD of MS2 coat protein", "setting": "[1]", "result": 45.8, "unit": "nM"}, {"measurement": "apparent KD of MS2 coat protein", "setting": "input ligand: none", "result": 51.2, "unit": "nM"}]}, {"sequence": "UUUAGAUAGCGAGGAUAUCGCGAGGAUCACCCGUGAGAAGGCGCAGAGCCGAGGAUCACCCGGCUGAUCCUGAGAAGGAGGUCA (Eterna round: R96, puzzle: Same State NG 1)", "values": [{"measurement": "apparent KD of MS2 coat protein", "setting": "input ligand: FMN 200 uM", "result": 92.3, "unit": "nM"}, {"measurement": "apparent KD of MS2 coat protein", "setting": "[1]", "result": 155, "unit": "nM"}, {"measurement": "apparent KD of MS2 coat protein", "setting": "input ligand: none", "result": 245, "unit": "nM"}]}, {"sequence": "UUUAGAUCGCGAGGAUAUCGCGAGGAUCACCCGUGAGAAGGCGCAGAGCCGAGGAUCACCCGGCUGAUCCUGAGAAGGAGGUCA (Eterna round: R96, puzzle: Same State NG 1)", "values": [{"measurement": "apparent KD of MS2 coat protein", "setting": "input ligand: FMN 200 uM", "result": 91.7, "unit": "nM"}, {"measurement": "apparent KD of MS2 coat protein", "setting": "[1]", "result": 206, "unit": "nM"}, {"measurement": "apparent KD of MS2 coat protein", "setting": "input ligand: none", "result": 250, "unit": "nM"}]}, {"sequence": "UUUAGUUGCGCGCAGGAUAUGUAUUAAUAUACAUGAGGAUCACCCAUGUGAGAUCGAAUAGAUCUGCAGAAGGGCGAAUCGCGAC [Laonerce - 27] (puzzle: Same State 2)", "values": [{"measurement": "apparent KD of MS2 coat protein", "setting": "[2]", "result": 52.7, "unit": "nM"}, {"measurement": "apparent KD of MS2 coat protein", "setting": "[3]", "result": 361, "unit": "nM"}, {"measurement": "apparent KD of MS2 coat protein", "setting": "[4]", "result": 772, "unit": "nM"}]}, {"sequence": "UUUAGUUGCGGGCAGGAUAUGUAUUAAAAUACAUGAGGAUCACCCAUGUGAGACCAUAAAGGUCUACAGAAGGGCCAAUCGCGAC [Laonerce - 19] (puzzle: Same State 2)", "values": [{"measurement": "apparent KD of MS2 coat protein", "setting": "[2]", "result": 14.9, "unit": "nM"}, {"measurement": "apparent KD of MS2 coat protein", "setting": "[3]", "result": 89, "unit": "nM"}, {"measurement": "apparent KD of MS2 coat protein", "setting": "[4]", "result": 88.1, "unit": "nM"}]}, {"sequence": "UUUAGUUGCGGGCAGGAUAUGUAUUAAAAUACAUGAGGAUCACCCAUGUGAGAUCAUAAAGAUCUACAGAAGGGCCAAUCGCGAC [Laonerce - 18] (puzzle: Same State 2)", "values": [{"measurement": "apparent KD of MS2 coat protein", "setting": "[2]", "result": 13.4, "unit": "nM"}, {"measurement": "apparent KD of MS2 coat protein", "setting": "[3]", "result": 69.4, "unit": "nM"}, {"measurement": "apparent KD of MS2 coat protein", "setting": "[4]", "result": 91.6, "unit": "nM"}]}, {"sequence": "UUUAGUUGCGGGCAGGAUAUGUAUUAAAAUACAUGAGGAUCACCCAUGUGAGGUCAUAAAGACCUGCAGAAGGGCCAAUCGCGAC [Laonerce - 17] (puzzle: Same State 2)", "values": [{"measurement": "apparent KD of MS2 coat protein", "setting": "[2]", "result": 11.5, "unit": "nM"}, {"measurement": "apparent KD of MS2 coat protein", "setting": "[3]", "result": 86.8, "unit": "nM"}, {"measurement": "apparent KD of MS2 coat protein", "setting": "[4]", "result": 48.3, "unit": "nM"}]}]}
